In patent US5723594, “High affinity PDGF nucleic acid ligands” (NeXstar Pharmaceuticals, Inc.) one finds IC50 data, which are given here for three molecules.

Holding throughout (conditions): tags: R&D Systems, carrier-free, E. coli produced; chain copies: 2 (homodimer, inferred); label: 5'-32P; three-way helix junction
The target of data set [1] is T1, PDGF-BB (Homo sapiens, UniProt P01127 P01127:82-190). The experiment in a line: cell_activity; slightly less efficient than 36t; thymidine incorporation. As to the method: (§1) The incorporation of [^3H]thymidine into PAE cells expressing PDGF β-receptor in response to 20 ng/ml of PDGF-BB or 10% fetal calf serum and in the presence of different concentrations of DNA ligands was performed as described (Mori et al., (1991) *J. Biol. Chem.* 266, 21158–21164). After incubation for 24 h at 37° C., ^3H-radioactivity incorporated into DNA was determined using a β-counter.
T1 sequence (P01127 82-190, one chain of several): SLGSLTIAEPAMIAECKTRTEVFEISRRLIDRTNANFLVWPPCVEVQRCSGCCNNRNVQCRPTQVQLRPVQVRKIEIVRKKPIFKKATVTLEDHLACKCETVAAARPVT
(§2) We furthermore investigated the ability of the DNA ligands to inhibit the mitogenic effects of PDGF-BB on PAE cells expressing PDGF β-receptors. […] The control ligand T39 had no effect. Moreover, none of the ligands inhibited the stimulatory effects of fetal calf serum on [^3H]thymidine incorporation in these cells, showing that the inhibitory effects are specific for PDGF.
In general terms: Uptake of a labelled nucleoside into DNA is a usual measure of proliferation.

Data set [2] addresses T1, PDGF-BB. Briefly: cell_activity; slightly more efficient than 36t; thymidine incorporation. How it is done: as §1, §2
Data set [3] concerns the target T1, PDGF-BB. The experiment in a line: cell_activity; inhibition of thymidine incorporation in PAE cells expressing PDGF beta-receptor, 20 ng/ml PDGF-BB. How it is done:
as §1, §2

Consider TGGGAGGGCGCGTTCTTCGTGGTTACTTTTAGTCCCGT (ssDNA, 3'-3' linked inverted T at 3' end) [20t], for which the IC50 with PDGF-BB [1] is > 2.5 nM. As for TACTCAGGGCACTGCAAGCAATTGTGGTCCCAATGGGCTGAGTAT (ssDNA, 3'-3' linked inverted T at 3' end) [41t], in the data set with PDGF-BB [2], the IC50 was < 2.5 nM. On to CACAGGCTACGGCACGTAGAGCATCACCATGATCCTGTGT (ssDNA, 3'-3' linked inverted T at 3' end) [36t], for which 2.5 nM corresponded to half-maximal inhibition with PDGF-BB [3] (IC50).

The term IC50 denotes the point on the concentration scale where inhibition reaches its midpoint. A lower IC50 goes with higher potency.
